B1: full-length barley (Hordeum vulgare) SGT1 protein (natural protein, Hordeum vulgare (barley), UniProt Q8W516 1-373, looked up)
chain: MAAAAASDLESKAKEAFVDDDFELAAELYTQAIEAGPATAELYADRAQAHIKLGSYTEAVADANKAIELDPSMHKAYLRKGSACIKLEEYQTAKAALEVGSSYASGDSRFTRLMKECDDRIAEEASQAPVKNAAAAVAPATSSGATTVVTEAEDQDGENMENAQPTVEVPSKPKYRHDYYNTPTEVVLTIFAKGVPADSVVVDFGEQMLSVSIELPGEEPYHFQPRLFSKIVPDKCKYTVLSTKVEIRLAKAEPVTWTSLDYTGKPKAPQKINVPAESAQRPSYPSSKSKKDWDKLEAEVKKQEKDEKLDGDAALNKFFREIYSDADEDMRRAMMKSFVESNGTVLSTNWKDVGKKTVEGSPPDGMELKKWEY
notes: SGT1 (suppressor of the G2 allele of skp1), Hordeum vulgare, full length cDNA; 373 amino acids in total; Cloned in pET151-D TOPO; His-TEV site cleaved with His-TEV protease (Ser219Val); also called barley SGT1; HvSgt1; source: E. coli BL21 DE3 Codon Plus, purified (HisTrap Ni-NTA, Superdex 200, TEV cleavage, HisTrap, MonoQ)
B2: TPR domain from Hordeum vulgare SGT1 (6-124) (domain or fragment, Hordeum vulgare (barley), UniProt Q8W516 6-124, looked up)
chain: ASDLESKAKEAFVDDDFELAAELYTQAIEAGPATAELYADRAQAHIKLGSYTEAVADANKAIELDPSMHKAYLRKGSACIKLEEYQTAKAALEVGSSYASGDSRFTRLMKECDDRIAEE
notes: SGT1, Hordeum vulgare, tetratricopeptide repeats (TPR) domain, residues 6-124; Cloned in pETM11 (NcoI/EcoRI) from pET151-HvSgt1; his-tag cleaved with TEV protease; source: E. coli BL21(DE3) Codon Plus, purified (HisTrap, TEV cleavage, HisTrap, Superdex 200)

How the values were obtained:
[1] = target: the molecule itself; experiment: SAXS; full-length SGT1 in solution, 3.46, 3.41 and 2.71 mg/mL in 50 mM Tris/HCl pH 7.5, 5 mM DTT with 0, 0.5 or 1 M NaCl, 10°C; SVD and MCR-ALS analysis; dimer to monomers
[2] = target: the molecule itself; experiment: SAXS; TPR domain in solution, 2 mg/ml in 50 mM Tris HCl pH 7.5, 5 mM DTT with 0, 100, 200, 400, 600 or 800 mM KCl, 15°C; SVD and MCR-ALS analysis; dimer to monomers

| Protein | stoichiometry N [1] | stoichiometry N [2] |
| --- | --- | --- |
| B1 | 2 | – |
| B2 | – | 2 |

Source: PMC3979677, “Low-Resolution Structure of the Full-Length Barley (Hordeum vulgare) SGT1 Protein in Solution, Obtained Using Small-Angle X-Ray Scattering” (PLoS ONE, 2014)
